Substrate in data set [1]: Cc1ccc(N(CC(=O)O)CC(=O)O)c(OCCOc2cc(-c3c4cc(Cl)c(=O)cc-4oc4cc(O)c(Cl)cc34)ccc2N(CC(=O)O)CC(=O)O)c1
Put plainly: TP_TRANSPORTER: uptake in membrane vesicle from MRP1-expressing HeLa cells. The data set is classed as functional, cell membranes.

Substrate in data set [2]: CCCCC/C=C\C\C=C/C=C/C=C/[C@@H](SC[C@@H](NC(=O)CC[C@H](N)C(=O)O)C(=O)NCC(=O)O)[C@@H](O)CCCC(=O)O
Put plainly: cells, lysate or membranes named.

B1: Multidrug resistance-associated protein 1 (Homo sapiens) (protein)
chain: MALRGFCSADGSDPLWDWNVTWNTSNPDFTKCFQNTVLVWVPCFYLWACFPFYFLYLSRHDRGYIQMTPLNKTKTALGFLLWIVCWADLFYSFWERSRGIFLAPVFLVSPTLLGITMLLATFLIQLERRKGVQSSGIMLTFWLVALVCALAILRSKIMTALKEDAQVDLFRDITFYVYFSLLLIQLVLSCFSDRSPLFSETIHDPNPCPESSASFLSRITFWWITGLIVRGYRQPLEGSDLWSLNKEDTSEQVVPVLVKNWKKECAKTRKQPVKVVYSSKDPAQPKESSKVDANEEVEALIVKSPQKEWNPSLFKVLYKTFGPYFLMSFFFKAIHDLMMFSGPQILKLLIKFVNDTKAPDWQGYFYTVLLFVTACLQTLVLHQYFHICFVSGMRIKTAVIGAVYRKALVITNSARKSSTVGEIVNLMSVDAQRFMDLATYINMIWSAPLQVILALYLLWLNLGPSVLAGVAVMVLMVPVNAVMAMKTKTYQVAHMKSKDNRIKLMNEILNGIKVLKLYAWELAFKDKVLAIRQEELKVLKKSAYLSAVGTFTWVCTPFLVALCTFAVYVTIDENNILDAQTAFVSLALFNILRFPLNILPMVISSIVQASVSLKRLRIFLSHEELEPDSIERRPVKDGGGTNSITVRNATFTWARSDPPTLNGITFSIPEGALVAVVGQVGCGKSSLLSALLAEMDKVEGHVAIKGSVAYVPQQAWIQNDSLRENILFGCQLEEPYYRSVIQACALLPDLEILPSGDRTEIGEKGVNLSGGQKQRVSLARAVYSNADIYLFDDPLSAVDAHVGKHIFENVIGPKGMLKNKTRILVTHSMSYLPQVDVIIVMSGGKISEMGSYQELLARDGAFAEFLRTYASTEQEQDAEENGVTGVSGPGKEAKQMENGMLVTDSAGKQLQRQLSSSSSYSGDISRHHNSTAELQKAEAKKEETWKLMEADKAQTGQVKLSVYWDYMKAIGLFISFLSIFLFMCNHVSALASNYWLSLWTDDPIVNGTQEHTKVRLSVYGALGISQGIAVFGYSMAVSIGGILASRCLHVDLLHSILRSPMSFFERTPSGNLVNRFSKELDTVDSMIPEVIKMFMGSLFNVIGACIVILLATPIAAIIIPPLGLIYFFVQRFYVASSRQLKRLESVSRSPVYSHFNETLLGVSVIRAFEEQERFIHQSDLKVDENQKAYYPSIVANRWLAVRLECVGNCIVLFAALFAVISRHSLSAGLVGLSVSYSLQVTTYLNWLVRMSSEMETNIVAVERLKEYSETEKEAPWQIQETAPPSSWPQVGRVEFRNYCLRYREDLDFVLRHINVTINGGEKVGIVGRTGAGKSSLTLGLFRINESAEGEIIIDGINIAKIGLHDLRFKITIIPQDPVLFSGSLRMNLDPFSQYSDEEVWTSLELAHLKDFVSALPDKLDHECAEGGENLSVGQRQLVCLARALLRKTKILVLDEATAAVDLETDDLIQSTIRTQFEDCTVLTIAHRLNTIMDYTRVIVLDKGEIQEYGAPSDLLQQRGLFYSMAKDAGLV
The term Km denotes the substrate concentration at which the rate is half of its maximum. On to B1, for which the Km in data set [1] was found to be 12 µM.

B2: Multidrug resistance-associated protein 1 (Mus musculus) (protein)
chain: MALRSFCSADGSDPLWDWNVTWHTSNPDFTKCFQNTVLTWVPCFYLWSCFPLYFFYLSRHDRGYIQMTHLNKTKTALGFFLWIICWADLFYSFWERSQGVLRAPVLLVSPTLLGITMLLATFLIQLERRKGVQSSGIMLTFWLVALLCALAILRSKIISALKKDAHVDVFRDSTFYLYFTLVLVQLVLSCFSDCSPLFSETVHDRNPCPESSASFLSRITFWWITGMMVHGYRQPLESSDLWSLNKEDTSEEVVPVLVNNWKKECDKSRKQPVRIVYAPPKDPSKPKGSSQLDVNEEVEALIVKSPHKDREPSLFKVLYKTFGPYFLMSFLYKALHDLMMFAGPKILELIINFVNDREAPDWQGYFYTALLFVSACLQTLALHQYFHICFVSGMRIKTAVVGAVYRKALLITNAARKSSTVGEIVNLMSVDAQRFMDLATYINMIWSAPLQVILALYFLWLSLGPSVLAGVAVMILMVPLNAVMAMKTKTYQVAHMKSKDNRIKLMNEILNGIKVLKLYAWELAFQDKVMSIRQEELKVLKKSAYLAAVGTFTWVCTPFLVALSTFAVFVTVDERNILDAKKAFVSLALFNILRFPLNILPMVISSIVQASVSLKRLRIFLSHEELEPDSIERRSIKSGEGNSITVKNATFTWARGEPPTLNGITFSIPEGALVAVVGQVGCGKSSLLSALLAEMDKVEGHVTLKGSVAYVPQQAWIQNDSLRENILFGHPLQENYYKAVMEACALLPDLEILPSGDRTEIGEKGVNLSGGQKQRVSLARAVYSNSDIYLFDDPLSAVDAHVGKHIFEKVVGPMGLLKNKTRILVTHGISYLPQVDVIIVMSGGKISEMGSYQELLDRDGAFAEFLRTYANAEQDLASEDDSVSGSGKESKPVENGMLVTDTVGKHLQRHLSNSSSHSGDTSQQHSSIAELQKAGAKEETWKLMEADKAQTGQVQLSVYWNYMKAIGLFITFLSIFLFLCNHVSALASNYWLSLWTDDPPVVNGTQANRNFRLSVYGALGILQGAAIFGYSMAVSIGGIFASRRLHLDLLYNVLRSPMSFFERTPSGNLVNRFSKELDTVDSMIPQVIKMFMGSLFSVIGAVIIILLATPIAAVIIPPLGLVYFFVQRFYVASSRQLKRLESVSRSPVYSHFNETLLGVSVIRAFEEQERFIHQSDLKVDENQKAYYPSIVANRWLAVRLECVGNCIVLFAALFAVISRHSLSAGLVGLSVSYSLQITAYLNWLVRMSSEMETNIVAVERLKEYSETEKEAPWQIQETAPPSTWPHSGRVEFRDYCLRYREDLDLVLKHINVTIEGGEKVGIVGRTGAGKSSLTLGLFRINESAEGEIIIDGVNIAKIGLHNLRFKITIIPQDPVLFSGSLRMNLDPFSQYSDEEVWMALELAHLKGFVSALPDKLNHECAEGGENLSVGQRQLVCLARALLRKTKILVLDEATAAVDLETDNLIQSTIRTQFEDCTVLTIAHRLNTIMDYTRVIVLDKGEVRECGAPSELLQQRGIFYSMAKDAGLV
With B2, the Michaelis constant (Km) in data set [2] was found to be 0.1 µM.

For the origin of these results see ChEMBL document CHEMBL2073939, “Export pumps for anionic conjugates encoded by MRP genes” (Adv Enzyme Regul, 1999).
